Positions count from the first letter of the chain named. Read-outs that look alike come from different tables or passages of the source.
Legend:
Assay in all cases: AUC
AUC [1] = target: the molecule itself
AUC [2] = target: the molecule itself; remark: listed apart in the source
AUC [3] = target: the molecule itself; remark: listed apart in the source

B1: Escherichia coli primosomal DnaT protein, wild type (natural protein, E. coli, UniProt P0A8J2 1-179, looked up)
chain: MSSRVLTPDVVGIDALVHDHQTVLAKAEGGVVAVFANNAPAFYAVTPARLAELLALEEKLARPGSDVALDDQLYQEPQAAPVAVPMGKFAMYPDWQPDADFIRLAALWGVALREPVTTEELASFIAYWQAEGKVFHHVQWQQKLARSLQIGRASNGGLPKRDVNTVSEPDSQIPPGFRG
AUC [1]
  stoichiometry N: 3

B2: isolated N-terminal core domain of the DnaT protein (domain or fragment, E. coli, UniProt P0A8J2 1-161, looked up)
chain: MSSRVLTPDVVGIDALVHDHQTVLAKAEGGVVAVFANNAPAFYAVTPARLAELLALEEKLARPGSDVALDDQLYQEPQAAPVAVPMGKFAMYPDWQPDADFIRLAALWGVALREPVTTEELASFIAYWQAEGKVFHHVQWQQKLARSLQIGRASNGGLPKR
AUC [2]
  stoichiometry N: 2

B3: fluorescein-labeled N-terminal core domain of the DnaT variant S3C (domain or fragment, E. coli, UniProt P0A8J2 1-161, looked up)
chain: B2 chain with S3C
modifications: fluorescein (fluorescein maleimide) on the cysteine that replaces serine 3
AUC [3]
  stoichiometry N: 2

From article PMC3686320 (Biochemistry, 2013)
